Results on 16 sequences are retold here after the nanobody polyreactivity screen of Harvey et al. (2022).

A short description of the data set: yeast display, Sf9 membrane polyspecificity reagent, FACS + sequencing; frameworks hold sequencing errors. In short, it runs like this:
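Galactose induction of a Saccharomyces cerevisiae BJ5465 synthetic nanobody display library ran 36–48 hours. The cells were then stained for 1 hour at 4 °C with 10% biotinylated, detergent-solubilized Sf9 membrane reagent, pulled down on streptavidin microbeads and FACS-sorted into low and high (top ~1%) gates on expression and reagent-binding fluorescence. Labels for polyreactivity follow the gate of origin.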
In the case of “QVQLVESGGGLVQAGGSLRLSCAASGSILRRNAMGWYRPAPGKERELFAGISRGGNTNYADSVNGRFTISRDNAKNTVYLQMNSLKPEDTAVYYCDTDGYGRWGRLTFTYWGQGTQVTVSS”, the “polyreactivity (PSR sort gate)” value is “low polyreactivity”. Consider “QVHLVESGGRLVQAGGSLRLSCAASGFTFSYYAMGWYRQAPGKERELVASISRSVNTYYADSVKGRFTISRDNAKNTVYLQMNSLKTEDTAVYYCAAKRISYYSYNFDYWGQGTQVTVSS”, for which the “polyreactivity (PSR sort gate)” value is on record as “high polyreactivity”.

Turning to “QVQLVESGGGLVQAGGSLRLSCAASGRTFQYNAMGWYRQAPGKERELVAAISSSGGSTYYADSVKGRFTISRDNAKNTVYLQMNSLKPEDTAVYYCNAYSQSWNFYGDGDYWGQGSQVTVSS”, the “polyreactivity (PSR sort gate)” value is recorded as “low polyreactivity”. The entry for “QVQLVESGGGLVQAGGSLRLSCAASGRTFYSNAMGWYRQAPGKERELVATITLSGGSTDYADSVKGRFTISRDNAKNTVYLQMNSLKPEDTAVYYCNADTDVHLIMGYWGQGTQVTVSS” is “low polyreactivity”; for “QVQLVDSGGGLVQAGGSLRLSCAASGSIFYQYAMGWYRQAPGKQRELVAAISRSGGSTYYADSVKGRFTISRDNAKNTVYLQMISLKPEDTAVYYCAARAVRAAYDYWGLGTQVTVSS” it is “low polyreactivity”; for “QDQLVESGGCLVQAGGSLRLSCAASGSIFKTYAMGWYRQAPGKERELVAAISWRGGSTYYADSVKGRFTISRDNAKNTVYLQMISLKPEDTAVYYCAAGRKFGTRTLWYRYGYWGQGTQVTVSS” it is “high polyreactivity”.

“QVQHVESGGGLVQAGGSLRLSSAASGFTFNRYAMGWNSQAPGKESELVATITSGGNTYYADSVKGRFTLSRDNAKNTVYLEMNTLKPEDTAVYYCNNRGWYSVYRRDYWGQGTQVTVSS”: the “polyreactivity (PSR sort gate)” value is given as “high polyreactivity”. “QVQLEESGGGLVQAGGSIRLSCAASGFIFYYNAMGWYRQAPGKERELVASIRSGGSTNYADSVKGRFTISRDNAKNTVYLQMNSLKPEDTAVYYCAADISRWSHRSKEMYYWGQGTQVTVSS”: the “polyreactivity (PSR sort gate)” value is “low polyreactivity”. The entry for “QVQLVESGAGLVQAGGTLRLSCAASGFTCRYYAMGWSRQAPGKERELVASISWSGDSTYYADSVKGRFTISRDNAKNTGYLQMNSLKPEETAFYYCARQTGFPRSYIYRMYYWGQGTQVTVSS” is “high polyreactivity”; for “QVQLVESGGGLVQAGGSLRLSCAASGFTLAYNTMGWYRQAPGKERELVASITSSGTSTYYADSVKGRFTISRDNAKNTVYLQMNSLKPPDTAVYYCAASIWLRYHWGYDYWGQGTQVTVSS” it is “high polyreactivity”. For “QVQLVESGGGLVQAGGSLRLSCAASGSIFPLNAMGWYRQAPGKERELVATISWRGGITYYADSVKGRFTISRDNAKNTVYLQMNSLKPEDTAVYYCATVGRWNSLWYRYRYDYWGQGTQVTVSS”, the “polyreactivity (PSR sort gate)” value is on record as “low polyreactivity”. As for “QVQLVESGGGLVQAGGSLRLSCAASGGIFLYNSMGWYRQAPGKERELVADISSSGITYYADSVKGRFTISRDNAKNTVYLQMNSLNPEDTAVYYCAADSTTRPGLRVYDDYDYWGQGTQVTVSS”, the “polyreactivity (PSR sort gate)” value is “low polyreactivity”. As to “QVQLVESGGGLVQAGRSLRLSCAASGSTFYGYAMGWYRQPPGKERELVAAITSSGGSTYYADSVKGRFTISRDNAKITVYVQLNSLKPEDTAVYYCNAKRAPWGTLYNYWGQGTQVTVSS”, the “polyreactivity (PSR sort gate)” value was “high polyreactivity”. The entry for “EVQLVESGGGLVQPGGSLRLSCAASGYIYSRYRMGWYRQAPGKGREFVAAISGGSSTNYADSVKGRFTISRDNSTNTVYLQMNSLRAEDTAVYYCAAYKIDSDPRVYWGQGTQVTVSS” is “low polyreactivity”.

Regarding “QVQLVESGGGLVQAGGSLRLSCAASGLIFPRNAMGWYRQAPGKERELVAVISRSGTSTYYADSVKGRFTISRDNAKNTVYLQMNSLKPEDTAVYYCAAAPSQVYRARFYYWGQGTQVTVSS”, the “polyreactivity (PSR sort gate)” value is reported as “high polyreactivity”. As for “QVQLVESGGGLVQAGGSLRLSCAASGFTFCSNAMGWYRQAPGKERELVAAITWSGGRTYYADSVKGRFTISRDNAKNTVYLQMNSLKPEDTAVYYCNAYRNWWWSQYDYWGQGTQVTVSS”, the “polyreactivity (PSR sort gate)” value is “high polyreactivity”.
